# Assay results: patent US9340579B2, “DPP-4 inhibitor” (NIPPI, INCORPORATED, priority 2011, dated 2016)
# Square brackets hold non-standard residues; d marks the D form. Ends that are not written are not given here. Hyp = O=C(O)[C@@H]1C[C@@H](O)CN1
# Biological target: DPP-4 (manufactured by Sigma, derived from porcine kidney) (porcine, UniProt P22411 38-766, limits assumed)
# Experiment: cell-based or functional assay
# Chain of DPP-4 (manufactured by Sigma, derived from porcine kidney) (P22411 38-766 limits assumed): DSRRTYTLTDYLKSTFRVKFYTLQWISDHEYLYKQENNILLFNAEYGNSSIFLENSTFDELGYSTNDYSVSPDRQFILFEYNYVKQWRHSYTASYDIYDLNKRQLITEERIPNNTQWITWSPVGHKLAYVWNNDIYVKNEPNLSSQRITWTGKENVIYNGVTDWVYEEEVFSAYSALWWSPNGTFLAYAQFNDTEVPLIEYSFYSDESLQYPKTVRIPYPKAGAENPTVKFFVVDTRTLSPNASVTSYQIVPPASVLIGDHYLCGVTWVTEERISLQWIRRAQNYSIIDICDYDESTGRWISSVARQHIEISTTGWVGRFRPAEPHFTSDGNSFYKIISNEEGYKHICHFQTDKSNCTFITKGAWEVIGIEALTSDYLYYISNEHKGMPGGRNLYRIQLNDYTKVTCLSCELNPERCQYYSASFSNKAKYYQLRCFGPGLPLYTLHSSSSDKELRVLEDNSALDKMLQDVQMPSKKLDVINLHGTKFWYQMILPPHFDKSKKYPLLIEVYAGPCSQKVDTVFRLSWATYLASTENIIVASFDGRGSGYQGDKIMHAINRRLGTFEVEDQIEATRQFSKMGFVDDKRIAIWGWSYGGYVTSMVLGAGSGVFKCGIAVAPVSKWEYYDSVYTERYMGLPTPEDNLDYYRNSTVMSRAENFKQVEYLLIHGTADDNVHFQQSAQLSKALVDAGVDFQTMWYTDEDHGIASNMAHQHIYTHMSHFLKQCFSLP
Binder,IC50 value [µM],Inhibition rate (%) at 0.35 mg/ml time [%]
Ala-[Hyp]-Gly [Ala-Hyp-Gly],9450,14.6
Ala-[Hyp] [Ala-Hyp],–,0
[Hyp]-Gly [Hyp-Gly],–,0
Ile-[Hyp]-Gly [Ile-Hyp-Gly],500,71

# Other lines, results leading:
IC50 value [µM],Inhibition rate (%) at 0.35 mg/ml time [%],Binder
130,89.3,Leu-[Hyp]-Gly [Leu-Hyp-Gly]
–,0,Phe-[Hyp] [Phe-Hyp]
830,52.1,L[Hyp]GPA [Leu-Hyp-Gly-Pro-Ala]
–,0,Pro-[Hyp] [Pro-Hyp]
4640,27.2,Pro-[Hyp]-Gly [Pro-Hyp-Gly]
